Results from paper PMC4205155.

Target: T1, CREB B-ZIP DNA binding domain (UniProt P16220 269-327)
T1 sequence: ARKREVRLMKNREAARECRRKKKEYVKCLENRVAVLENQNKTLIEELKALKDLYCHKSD
Assay: EMSA

B1: CRE 28-mer unmethylated (U) (dsDNA)
DNA 1: GTCAGTCAGATGACGTCATATCGGTCAG
DNA 2: CTGACCGATATGACGTCATCTGACTGAC
  binding result: binds
